Data on two molecules can be found in patent US20140242095A1.

The test deals with NOD mouse SIRPα-Fc fusion protein (mouse (NOD strain)) (UniProt P97797). Kind of test: competitive ELISA. In general terms: ELISA stands for enzyme-linked immunosorbent assay.

B1: SIRP29-AM4-1 Fab (Fab, V domains shown)
VH: EVQLVESGGGLVQPGGSLRLSCAASGFNISYYFIHWVRQAPGKGLEWVASVYSSFGYTYYADSVKGRFTISADTSKNTAYLQMNSLRAEDTAVYYCARFTFPGAMDGFFGAYLGSLDYWGQGTLVTVSS
VL: DIQMTQSPSSLSASVGDRVTITCRASQSVSSAVAWYQQKPGKAPKLLIYSASSLYSGVPSRFSGSRSGTDFTLTISSLQPEDFATYYCQQAVNWVGALVTFGQGTKVEIK
B1: the fold improvement in affinity against parent 29-AM3-35 was found to be 2 fold.

B2: SIRP29-AM4-5 Fab (Fab, V domains shown)
VH: EVQLVESGGGLVQPGGSLRLSCAASGFNISYYFIHWVRQAPGKGLEWVASVYSSFGYTYYADSVKGRFTISADTSKNTAYLQMNSLRAEDTAVYYCARFTFPGLFDGFFGAYLGSLDYWGQGTLVTVSS
VL: DIQMTQSPSSLSASVGDRVTITCRASQSVSSAVAWYQQKPGKAPKLLIYSASSLYSGVPSRFSGSRSGTDFTLTISSLQPEDFATYYCQQAVNWVGALVTFGQGTKVEIK
On to B2, for which the fold improvement in affinity against parent 29-AM3-35 was determined as 2 fold.
